Target: T1, Aβ42-GFP (Homo sapiens, UniProt P05067)
T1 construct: a chimeric fusion of the human Aβ(1-42) peptide (Aβ42) with GFP; expressed in transfected cells; host or cells: E. coli BL21(DE3)
Test: High-throughput sequencing of pSICLOPPS vectors isolated after bacterial sorting for enhanced Aβ42-GFP fluorescence
Conditions: for Reads/Total TXXXR reads (%) / Reads/Total pentapeptide reads (%) / Reads/Total peptide reads (%): after the second round of bacterial sorting; for Reads/Total TXXXR reads (%): relative to total TXXXR reads; for Reads/Total pentapeptide reads (%): relative to total pentapeptide reads; for Reads/Total peptide reads (%): relative to total peptide reads; for Number of reads: high-throughput sequencing of isolated pSICLOPPS-NuX1X2X3-X5 vectors after the second round of bacterial sorting for enhanced Aβ42-GFP fluorescence, selected cyclo-TXXXR pentapeptides
Source text: On the other hand, very few bioactive sequences resembling AβC5-34 should exist. […] The peptide-encoding vectors contained in these clones were isolated and the peptide-encoding region of approximately 5.6 million of these plasmids was sequenced using an Ion Torrent high-throughput sequencing platform. […] First, pentapeptides were the dominant peptide species within the sorted pool (FIG. 12D), in agreement with previous observations (FIG. 8G). Second, the most prevalent motif among the selected pentapeptide sequences were TXXXR pentapeptides (˜47% of the selected pentapeptide-encoding pSICLOPPS plasmids; ˜42% of the unique selected pentapeptide sequences) (Table 1), in accordance with previous observations (FIG. 8G). […] At position 2, Thr, Ala, and Val were preferred, while aromatic residues (Phe, Trp, Tyr) were completely excluded from the selected TXXXR peptide pool, in full agreement with our site-directed mutagenesis studies. At the highly variable position 3, the complete absence of the negatively charged amino acids Glu and Asp among the selected sequences was notable (FIG. 12E). […] It is noteworthy, that Lys and Gln residues were practically absent from all positions, while the β sheet-breaking amino acid Pro that is typically included in designed peptide-based inhibitors of amyloid aggregation appeared with strikingly low frequencies (FIG. 12E).
Electrocompetent E. coli BL21(DE3) cells (Novagen, USA) carrying either the expression vector pETSOD1(A4V)-GFP, which produces SOD1(A4V)-GFP under control of the strong bacteriophage T7 promoter, or pETAβ42-GFP, which produces Aβ42-GFP under control of the T7 promoter, were co-transformed with the combined pSICLOPPS-NuX1X2X3-X5 vector library. Approximately 10^8 transformants carrying both the vector library and either pETSOD1(A4V)-GFP or pETAβ42-GFP vectors were harvested, pooled together, and grown in Luria-Bertani (LB) liquid medium containing either 0.005% (pETSOD1(A4F)-GFP) or 0.002% (pETAβ42-GFP) L-arabinose—the inducer of cyclic peptide production—at 37° C. with shaking. When the optical density at 600 nm (OD600) of the bacterial culture was about 0.5, 0.01 (pETSOD1(A4F)-GFP) or 0.1 (pETAβ42-GFP) mM isopropyl-β-D-thiogalactoside (IPTG) was added to the medium to induce overexpression of the reporter. […] The isolated cells were re-grown and screened for additional rounds in an identical manner until the desired enrichment in high-fluorescence clones was achieved.
For the characterization of the initial libraries, a combined pSICLOPPS-NuX1X2X3-X5 vector library was prepared containing approximately equal amounts of each one of the tetra-, penta- and hexapeptide sub-libraries. These samples were digested with NcoI and BsrGI and the resulting ˜250 bp product that contained the variable peptide-encoding region was isolated. High-throughput sequencing analysis was performed using an Ion Torrent high-throughput sequencing platform. From the obtained data, all the sequences with mismatches outside of the variable peptide-encoding region were removed, and only the 12-, 15- or 18-bp-long peptide-encoding sequences were subjected to further analysis. The libraries of the selected cyclic peptides that enhance either SOD1(A4V)-GFP or Aβ42-GFP fluorescence were sequenced in a similar manner, with the only exception being that all sequences including stop codons were discarded from subsequent analysis.

Substance	Reads/Total TXXXR reads (%)	Reads/Total pentapeptide reads (%)	Reads/Total peptide reads (%)	Number of reads
AβC5-130 (TAYHR; cyclic)	0.136	0.064	0.057	2,594
AβC5-136 (TALHR; cyclic)	0.107	0.050	0.045	2,026
AβC5-139 (TTSPR; cyclic)	0.100	0.047	0.042	1,904
AβC5-146 (TTWSR; cyclic)	0.085	0.040	0.036	1,612
AβC5-147 (TAMHR; cyclic)	0.085	0.040	0.036	1,611
AβC5-155 (TSLDR; cyclic)	0.066	0.031	0.028	1,251
AβC5-158 (TTGAR; cyclic)	0.062	0.029	0.026	1,172
AβC5-162 (TSVWR; cyclic)	0.058	0.027	0.024	1,094
AβC5-173 (TTHAR; cyclic)	0.050	0.023	0.021	953
AβC5-176 (TAGWR; cyclic)	0.050	0.023	0.021	945
AβC5-177 (TATAR; cyclic)	0.049	0.023	0.020	925
AβC5-184 (TVLAR; cyclic)	0.043	0.020	0.018	818
AβC5-185 (TTFNR; cyclic)	0.042	0.020	0.018	800
AβC5-188 (TGMRR; cyclic)	0.040	0.019	0.017	768
AβC5-190 (TLCLR; cyclic)	0.039	0.018	0.016	739
AβC5-215 (TTPWR; cyclic)	0.028	0.013	0.012	524
AβC5-218 (TVLHR; cyclic)	0.026	0.012	0.011	497
AβC5-223 (TGLDR; cyclic)	0.024	0.011	0.010	464
AβC5-239 (TTMHR; cyclic)	0.020	0.009	0.008	384
AβC5-242 (TTSTR; cyclic)	0.020	0.009	0.008	376
AβC5-244 (TTRVR; cyclic)	0.019	0.009	0.008	366

— patent publication US12559863B2, “Macrocyclic modulators of disease associated protein misfolding and aggregation” (RESQ BIOTECH, priority 2017, dated 2026)
